These results are taken from patent US20160333075A1.

The target of this test is enterovirus 71 (EV71) virions (enterovirus 71). The test is described as follows: cell-based or functional assay.

B1: monoclonal antibody E18 produced by the hybridoma cell line EV18/4 (antibody, V domains shown)
VH: QIQLVQSGPELKKPGETVKISCKASGYTFTRYGMSWVKQAPGKGLKWMGWINTYSGVPTYADDFKGRFAFSLETSASTAYLQINNLKNEDTATYFCARRGYSNYYPMDFWGQGTSVTVSS
VL: DIKMTQSPSSMYASLGERVTITCKASQDIKSYLSWYQQKPWKSPKTLIYYAKNLADGVPSRFSGSGFGQDYSLTISSLESDDTATYYCLQHGESPYTFGSGTKLEIKR
B1: the Inhibitory concentration 50 (IC50), Vero ATCC is 0.272 µg/mL; the Inhibitory concentration 50 (IC50), Vero NIBSC came to 0.181 µg/mL; the PRNT50 of original hybridoma came to 0.625 µl/ml; the end point PRNT50, Vero ATCC is 625 ng/mL. Moreover, the end point PRNT50, Vero NIBSC was 312 ng/mL.

B2: monoclonal antibody E20 produced by the hybridoma cell line EV20/5 (antibody, V domains shown)
VH: EVQLVESGGGLVKPGGSLKLSCAASGFTFNIYAMSWVRQTPEKRLEWVATISDGGSYTYYPDNVKGRFTISRDNAKNNLYLQMSHLKSEDTAMYYCVRDRGNYYSRAFPYAYWGQGTLVTVSA
VL: SIVMTQTPKFLPVSAGDRVTMTCKASQSVGNNVAWYQQKSGQSPKLLIYYASNRYTGVPDRFTGSGSGTDFTFTISSVQVEDLAVYFCQQHYSSPPTFGAGTKLELK
For the molecule B2, the Inhibitory concentration 50 (IC50), Vero NIBSC was determined as 9.95 µg/mL; the PRNT50 of original hybridoma is 5 µl/ml; the end point PRNT50, Vero NIBSC was 10000 ng/mL.
